Data on one protein can be found in PMC4576867 (The Journal of Cell Biology, 2015).

The data set concerns the molecule itself. In words: AUC.

B1: cytosolic domain of S. cerevisiae Sey1p (residues 1-680) (domain or fragment, UniProt Q99287 1-680, looked up)
chain: MADRPAIQLIDEEKEFHQSALQYFQQCIGNRDVGLDYHVISVFGSQSSGKSTLLNVLFNTNFDTMDAQVKRQQTTKGIWLAHTKQVNTTIEIDNDRPDIFVLDVEGSDGSERGEDQDFERKAALFAIAVSEVLIVNMWEQQIGLYQGNNMALLKTVFEVNLSLFGKNDNDHKVLLLFVIRDHVGVTPLSSLSDSVTRELEKIWTELSKPAGCEGSSLYDYFDLKFVGLAHKLLQEDKFTQDVKKLGDSFVMKGTENYYFKPQYHHRLPLDGWTMYAENCWDQIERNKDLDLPTQQILVARFKTEEISNEALEEFISKYDESIAPLKGNLGSLTSQLVKLKEECLTKYDEQASRYARNVYMEKREALNTKLNSHISGTINEFLESLMEKLWDDLKLEVSSRDKATTSFVESVAAGKSKIEKEFNESMETFKKLGLLISNEEITCKFSDDIEERIKQLRDAELKAKIGRIKKNLVPELKDHVIHLLSHPSKKVWDDIMNDFESTIKDNISAYQVEKDKYDFKIGLSESENAKIYKNIRILAWRTLDTTVHDYLKIDTIVSILRDRFEDVFRYDAEGSPRLWKTEEEIDGAFRVAKEHALEVFEVLSLAVTSDNVEIIPDVPMAEEESGEDNEIYRDNEGVFHSRRFAHILTELQKENVLDQFRRQINITVLDSKRSIITTRT
Turning to B1, the “stoichiometry N” value is 2.

As usually defined, the stoichiometry N is a count of units in the complex or per binding partner.
